Assay results published in US11141452 (dated 2021).
Like-named read-outs stand apart in the source and are kept apart here. Non-standard residues stand in square brackets, D forms with d. No end group written: not given here. *: point of attachment. NH(3,5-(CF3)2-benzyl) = FC(F)(F)c1cc(CN*)cc(C(F)(F)F)c1; NMePhe(4-F) = CN[C@@H](Cc1ccc(F)cc1)C(=O)O; Phe(4-F) = N[C@@H](Cc1ccc(F)cc1)C(=O)O; Dmt = Cc1cc(O)cc(C)c1C[C@H](N)C(=O)O; NMeF = CN[C@@H](Cc1ccccc1)C(=O)O; NHBn = c1ccc(CN*)cc1

Tests used:
Assay in all cases: competition
[1] = molecular target: T1, delta opioid receptor (DOR) (UniProt P41143)
T1 chain: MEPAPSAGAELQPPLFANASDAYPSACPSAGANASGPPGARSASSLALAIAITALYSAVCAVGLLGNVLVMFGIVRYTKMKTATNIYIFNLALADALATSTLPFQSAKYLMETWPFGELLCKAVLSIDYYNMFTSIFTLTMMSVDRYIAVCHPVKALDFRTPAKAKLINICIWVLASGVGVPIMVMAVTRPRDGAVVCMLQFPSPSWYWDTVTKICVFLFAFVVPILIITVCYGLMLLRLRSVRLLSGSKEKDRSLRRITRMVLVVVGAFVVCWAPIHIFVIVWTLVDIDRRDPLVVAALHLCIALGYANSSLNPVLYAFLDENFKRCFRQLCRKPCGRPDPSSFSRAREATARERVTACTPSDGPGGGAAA

rat NK1 receptor [2] = molecular target: T2, rat NK1 receptor (rat, UniProt P14600)
T2 chain: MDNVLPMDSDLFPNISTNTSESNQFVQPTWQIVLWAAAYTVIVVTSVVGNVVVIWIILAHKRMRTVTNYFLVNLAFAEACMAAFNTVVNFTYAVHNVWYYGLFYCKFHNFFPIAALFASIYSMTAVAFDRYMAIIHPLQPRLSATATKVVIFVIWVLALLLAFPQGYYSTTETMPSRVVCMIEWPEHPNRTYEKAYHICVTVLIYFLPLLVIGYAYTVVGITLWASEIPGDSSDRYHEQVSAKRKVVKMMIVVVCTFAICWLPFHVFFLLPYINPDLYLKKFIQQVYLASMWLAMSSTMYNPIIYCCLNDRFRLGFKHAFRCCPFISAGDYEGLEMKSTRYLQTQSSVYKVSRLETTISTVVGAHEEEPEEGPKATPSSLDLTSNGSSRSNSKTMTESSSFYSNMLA

human NK1 receptor [3] = molecular target: T3, human NK1 receptor (human, UniProt P25103)
T3 chain: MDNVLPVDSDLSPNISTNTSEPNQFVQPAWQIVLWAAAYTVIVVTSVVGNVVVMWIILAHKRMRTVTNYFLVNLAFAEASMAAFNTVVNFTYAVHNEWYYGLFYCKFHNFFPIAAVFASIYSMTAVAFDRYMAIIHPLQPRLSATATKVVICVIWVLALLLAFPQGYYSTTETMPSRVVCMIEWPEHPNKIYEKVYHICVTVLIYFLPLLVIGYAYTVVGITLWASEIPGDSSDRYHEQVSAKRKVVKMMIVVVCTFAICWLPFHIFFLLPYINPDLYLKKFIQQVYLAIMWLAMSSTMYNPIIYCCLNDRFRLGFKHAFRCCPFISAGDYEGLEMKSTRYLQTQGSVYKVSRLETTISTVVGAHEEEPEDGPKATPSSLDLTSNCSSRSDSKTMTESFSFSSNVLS

mu opioid receptor (MOR) [4] = molecular target: mu opioid receptor (MOR) (UniProt P35372)
Sequence of mu opioid receptor (MOR) (P35372 whole entry): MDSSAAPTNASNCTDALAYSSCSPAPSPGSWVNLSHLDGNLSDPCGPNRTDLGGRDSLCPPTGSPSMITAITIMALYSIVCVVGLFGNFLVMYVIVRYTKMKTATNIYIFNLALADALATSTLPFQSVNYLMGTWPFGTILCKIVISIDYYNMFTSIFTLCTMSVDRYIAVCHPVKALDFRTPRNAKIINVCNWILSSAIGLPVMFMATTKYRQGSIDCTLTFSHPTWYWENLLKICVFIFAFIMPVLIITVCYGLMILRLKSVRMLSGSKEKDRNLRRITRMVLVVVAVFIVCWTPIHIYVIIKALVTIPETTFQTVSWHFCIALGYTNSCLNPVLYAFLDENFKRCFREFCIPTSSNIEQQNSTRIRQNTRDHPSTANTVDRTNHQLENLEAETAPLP

mu opioid receptor (MOR) [5] = molecular target: mu opioid receptor (MOR) (UniProt P35372); remark: listed apart in the source
[6] = molecular target: T1, delta opioid receptor (DOR)
rat NK1 receptor [7] = molecular target: T2, rat NK1 receptor
human NK1 receptor [8] = molecular target: T3, human NK1 receptor
rat NK1 receptor [9] = molecular target: T2, rat NK1 receptor
human NK1 receptor [10] = molecular target: T3, human NK1 receptor
human NK1 receptor [11] = molecular target: T3, human NK1 receptor
mu opioid receptor (MOR) [12] = molecular target: mu opioid receptor (MOR) (UniProt P35372); remark: listed apart in the source
[13] = molecular target: T1, delta opioid receptor (DOR)
rat NK1 receptor [14] = molecular target: T2, rat NK1 receptor

Binder: XAGFPLW (Dmt1, D-Ala2, Phe(4-F)4; C-terminal NH-Bn(3',5'-(CF3)2)) [AKG127]
- Ki [1]: 1 nM
- Ki (rat NK1 receptor [2]): 29.4 nM
- Ki (human NK1 receptor [3]): 0.88 nM
- Ki (mu opioid receptor (MOR) [4]): 1 nM

Binder: Y[dA]GF[dN]PLW-NHBn [AKG102]
- Ki (mu opioid receptor (MOR) [5]): 90 nM
- Ki [6]: 54 nM
- Ki (rat NK1 receptor [7]): 133 nM
- Ki (human NK1 receptor [8]): 2.26 nM

Binder: YPFFPLW [AKG226]
- Ki (rat NK1 receptor [9]): 31.7 nM
- Ki (human NK1 receptor [10]): 5.9 nM

Binder: [Dmt][dA]FGYPLW (not fully specified (C-terminus)) [AKG118]
- Ki (human NK1 receptor [11]): 2.34 nM
- Ki (mu opioid receptor (MOR) [12]): 1 nM
- Ki [13]: 3 nM
- Ki (rat NK1 receptor [14]): 25.4 nM

Binder: Y[dA]GF[dQ]PLW (not fully specified (C-terminus)) [AKG103]
- Ki (mu opioid receptor (MOR) [5]): 116 nM
- Ki (rat NK1 receptor [7]): 106 nM
- Ki (human NK1 receptor [8]): 2.71 nM

Binder: Y[dA]G[Phe(4-F)]QPLW-NHBn [AKG142]
- Ki (mu opioid receptor (MOR) [5]): 8 nM
- Ki [6]: 2 nM
- Ki (human NK1 receptor [8]): 5.71 nM

Binder: YPFFPLW [AKG224]
- Ki (rat NK1 receptor [9]): 33.7 nM
- Ki (human NK1 receptor [10]): 3.39 nM

Binder: Y[dA]G[NMeF]PLW-{NH(3,5-(CF3)2-benzyl)} [AKG117]
- Ki [1]: 237 nM
- Ki (rat NK1 receptor [2]): 61.1 nM
- Ki (human NK1 receptor [3]): 3.35 nM
- Ki (mu opioid receptor (MOR) [4]): 27 nM

Binder: Y[dA]G[NMeF]QPLW (not fully specified (C-terminus)) [AKG129]
- Ki (mu opioid receptor (MOR) [5]): 7 nM
- Ki [6]: 1 nM
- Ki (human NK1 receptor [8]): 0.83 nM

Binder: Y[dA]GFQPLW (not fully specified (C-terminus)) [AKG105]
- Ki (mu opioid receptor (MOR) [5]): 38 nM
- Ki [6]: 9 nM
- Ki (rat NK1 receptor [7]): 12.5 nM
- Ki (human NK1 receptor [8]): 0.92 nM

Binder: YPFFPLW [AKG222]
- Ki (rat NK1 receptor [9]): 32.4 nM
- Ki (human NK1 receptor [10]): 4.19 nM

Binder: Y[dA]GFNPLW (not fully specified (C-terminus)) [AKG104]
- Ki (mu opioid receptor (MOR) [5]): 51 nM
- Ki [6]: 17 nM
- Ki (rat NK1 receptor [7]): 20.2 nM
- Ki (human NK1 receptor [8]): 1.16 nM

Binder: Y[dA]G[NMePhe(4-F)]QPLW-NHBn [AKG143]
- Ki (mu opioid receptor (MOR) [5]): 2 nM
- Ki [6]: 0.7 nM
- Ki (rat NK1 receptor [7]): 21.7 nM
- Ki (human NK1 receptor [8]): 3.2 nM

Binder: XAGFPLW (Dmt1, D-Ala2; C-terminal NH-Bn(3',5'-(CF3)2)) [AKG116]
- Ki [1]: 1 nM
- Ki (rat NK1 receptor [2]): 26.9 nM
- Ki (human NK1 receptor [3]): 1.4 nM
- Ki (mu opioid receptor (MOR) [4]): 3 nM
